Results: patent publication US20260265360A1, “USE OF ANTI-FAM19A5 ANTAGONISTS FOR TREATING HEARING DISORDERS” (NEURACLE SCIENCE CO., LTD., priority 2023, published 2026)

Tests used:
[1] = test system: noise-induced hearing loss mouse model; assay: Dosage effect in noise-induced hearing loss mouse model (ABR threshold); assay type: in vivo
Protocol: FIGS. 15A, 15B, 15C, 15D, and 15E show the dose-dependent effects of FAM19A5 antagonist administration on ABR threshold in a noise-induced hearing loss mouse model. FIG. 15A provides a schematic of the experimental design. As shown, one day after noise exposure, the animals received varying concentrations of the anti-FAM19A5 antibody (1-30) (i.e., 0 mg/kg, 3 mg/kg, 7 mg/kg, 15 mg/kg, and 30 mg/kg). After noise exposure, control animals received a human anti-IgG antibody (30 mg/kg). ABR threshold was measured at one day after noise exposure and at two weeks after noise exposure. FIG. 15B provides a comparison of ABR threshold for the different treatment groups across a frequency of 0 kHz to 64 kHz at one day after noise exposure. FIG. 15C provides the same data shown in FIG. 15B except as bar graphs. FIG. 15D provides a comparison of ABR threshold for the different treatment groups across a frequency of 0 kHz to 64 kHz at two weeks after noise exposure. FIG. 15E provides the same data shown in […] except as bar graphs. In each of FIGS. 15B-15E, ABR threshold prior to noise exposure is also shown (“BN”). In both FIGS. 15C and 15E, for each of the frequency groups shown, the first bar (from the left) corresponds to pre-noise exposure (“BN”), the second bar corresponds to animal streated with the control anti-IgG antibody (“hIgG”), the third bar corresponds to animals treated with 0 mg/kg of the anti-FAM19A5 antibody, the fourth bar corresponds to animals treated with 3 mg/kg of the anti-FAM19A5 antibody, the fifth bar corresponds to animals treated with 7 mg/kg of the anti-FAM19A5 antibody, the sixth bar corresponds to animals treated with 15 mg/kg of the anti-FAM19A5 antibody, and the last bar corresponds to animals treated with 30 mg/kg of the anti-FAM19A5 antibody.
To assess whether the above-described therapeutic effects of FAM19A5 antagonists on hearing loss is dose dependent, the noise-induced hearing loss mouse model described in Example 3 was used. […] ABR threshold was measured prior to noise exposure, one day after noise exposure, and two weeks after noise exposure.

[2] = test system: aged mice; assay: Age-related hearing loss in aged mice; assay type: in vivo, mouse; conditions: for ABR threshold vs control animals: 30 mg/kg i.v. weekly for eight weeks
Protocol: FIGS. 17A, 17B, 17C, and 17D show the therapeutic effect of FAM19A5 antagonists (1-30) on auditory brainstem response (ABR) threshold in an aged mouse model. FIG. 17A provides a schematic of the experimental design. As shown, anti-FAM19A5 antibody (1-30) or control human IgG antibody was administered to the mice (1-year old) intravenously once a week (30 mg/kg per dose) for a total of eight administrations. ABR (i.e., hearing test) was measured both prior to the initial administration of the antibodies and then at one and two months after administration. FIG. 17B provides the results before injection. FIG. 17C provides the results at one month post administration. FIG. 17D provides the results at two months post administration. In each of FIGS. 16B-16D, ABR threshold was measured at a frequency ranging from 4 kHz to 64 kHz.
FIGS. 18A, 18B, and 18C show the therapeutic effect of FAM19A5 antagonists (1-30) as comparison of wave I amplitude profile in an aged mouse model. The mice were treated as shown and described in FIG. 17A. FIG. 18A provides the results before injection. FIG. 18B provides the results at one month post injection. FIG. 18C provides the results at two months post injection. Tone bursts were measured across 0 and 90 dB.
Next, to assess whether the FAM19A5 antagonists provided herein can also treat age-related hearing loss, aged mice (e.g., about 6 months to 1 year in age) were used. […] Then, various hearing parameters (e.g., ABR threshold, DPOAE amplitude, and ABR waveform analysis) were assessed in the animals at one and two months after initial administration.

B1: 1-30: anti-FAM19A5 antibody, de-immunized variant of 3-2; VH SEQ ID NO: 235, VL SEQ ID NO: 240 (antibody, V domains shown)
VH: AVTLDESGGGLQTPGGALRLSCKASGFDFESFNMFWVRQAPGKGLEYVSQISSSEEDENYAPAVKGRATISRDNGQSTLYLQMNSLRAEDTGTYYCAKSSYDCPYGHCSSGVDSAGEIDAWGHGTEVIVSS
VL: ALTQPSSVSANPGETVKITCSGGGSEEEQYYYGWYQQKPGSAPVTLIYQDEERPSDIPSRFSGSTSGSTATLTITGVQAGDEADYYCGSWDSEDEDHFGAGTTLTVL
modifications: Low-PI VH, 1-30 VH, 1-17 VH, 1-32 VH, 4-11 VH, 6-10 VH; 1-30 VL
B1 was tested, and the “effect on ABR threshold by dose” value ([1]; one day post noise exposure, 15 mg/kg and 30 mg/kg) was “greatest effects”, the “ABR threshold across frequencies” value ([1]; one day post noise exposure, 1, 3, 7, 15, 30 mg/kg i.v.) was “dose-dependent reduction” and the ABR threshold ([1]; two weeks post noise exposure, doses of 7, 15 or 30 mg/kg, many of the frequencies) was “significant reduction”. For the same molecule, the “wave I amplitude vs control animals” value ([2]; general trend, results not statistically significant) was “decreased wave I amplitude”, the “ABR threshold vs control animals” value ([2]; one-month post administration) was “significantly decreased” and the “ABR threshold vs control animals” value ([2]; two-month post administration) was “significantly decreased”.
